The results in this text go back to patent US20090305254, “Method and Apparatus for Assaying Test Substance in Sample” (TECHNO MEDICA CO., LTD., published 2009).

The target of series [1] is T1, bovine serum albumin (BSA) (Bos taurus, UniProt P02769 P02769:25-607). The series is described as follows: SPR; control; PBS with 1 mM MgCl2 pH 7.4; also no response current at 1 uM in electrochemical assay. The conditions noted are these: label: biotin (SPR); hairpin. The method, then: Biotinylated CaAp-1 was immobilized on an SPR chip (SA chip), and variations in SPR signal when IgE solutions of various concentrations (100 μL) were fed were observed. Upon measurement of interaction, an Mg2+-containing PBS buffer (138 mM NaCl, 2.7 mM KCl, 8.1 mM NaHPO₄, 1.1 mM KHPO₄, 1 mM MgCl₂, pH 7.4) was used, and the flow rate was set at 20 μL/min. Observed as a control were variations in SPR signal when bovine serum albumin (BSA) solutions of various concentrations were fed.
T1 sequence (P02769 25-607, one chain of several): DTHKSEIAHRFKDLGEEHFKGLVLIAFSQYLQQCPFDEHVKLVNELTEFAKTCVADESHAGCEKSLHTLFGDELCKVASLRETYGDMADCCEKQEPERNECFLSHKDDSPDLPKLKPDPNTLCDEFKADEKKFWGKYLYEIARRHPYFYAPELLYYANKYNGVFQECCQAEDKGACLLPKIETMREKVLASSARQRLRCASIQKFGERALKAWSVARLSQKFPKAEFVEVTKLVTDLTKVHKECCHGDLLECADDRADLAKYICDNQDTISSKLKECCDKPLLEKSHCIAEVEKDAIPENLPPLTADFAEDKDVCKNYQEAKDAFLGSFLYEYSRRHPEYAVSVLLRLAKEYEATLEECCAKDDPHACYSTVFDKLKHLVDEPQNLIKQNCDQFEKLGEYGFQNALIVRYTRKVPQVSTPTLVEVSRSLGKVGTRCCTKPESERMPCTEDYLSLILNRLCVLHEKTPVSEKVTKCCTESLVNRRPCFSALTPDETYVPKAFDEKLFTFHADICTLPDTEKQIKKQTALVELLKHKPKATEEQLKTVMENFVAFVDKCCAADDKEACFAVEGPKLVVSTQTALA
To beads (20 μL; solid amount: 10 μL) with “NEUTRAVIDIN” (trade name) immobilized as a biotin-binding substance thereon, the biotin-modified 14-mer capture oligonucleotide (0.5 nmol) was added. With 100 mM phosphate buffer and 150 mM […] (pH7.2), the total volume was adjusted to 500 μL. The resultant mixture was stirred overnight at 4° C. to immobilize the 14-mer capture oligonucleotide on the beads. […] Using the supernatant (20 μL) and 10 mM MOPS (pH 7.2), which contained CaCl₂ (1 mM) and PQQ (1 μM), as a reaction solution (total volume: 4 mL), a gold electrode as a working electrode and a platinum electrode as an opposing electrode, the response current was measured at an impression potential of +100 mV vs Ag/AgCl while adding glucose to a final concentration of 60 mM. […]
(In general: Surface plasmon resonance follows binding to a sensor surface in real time, without labels.)

Series [2] deals with thrombin (UniProt P00734;P00734 P00734:328-363,P00734:364-622). Kind of series: EMSA; 10 mM MOPS pH 7.4, room temp; thrombin-bound aptamer does not hybridize FITC 15-mer complementary strand; PQQGDH-labeled aptamer bead assay detection limit 100. (In general: In EMSA bound probe runs differently from free probe, usually more slowly.)
In series [3] the target is T1, bovine serum albumin (BSA). Kind of series: control; PQQGDH-labeled aptamer, electrochemical bead capture assay; no BSA-concentration-dependent current. The conditions noted are these: G4 with inserted hairpin (15-nt loop 27-41, 5-bp stem). As for the experimental part:
Each sample solution (100 μL), which contained thrombin (0 to 10 μg/mL, […]) and the PQQGDH-labeled aptamer (0.1 U, approx. 10 μmol) prepared above in Procedure (2), was added to the DNA-immobilized carrier (10 μL) obtained above in Procedure (1), and the resulting mixture was stirred at room temperature for 15 minutes and then centrifuged. Using the thus-obtained supernatant (20 μL) and 10 mM MOPS (pH 7.2, 4 mL in total), which contained mPMS (1-methoxyphenazine methosulphate) (6 mM), PQQ (1 μM) and CaCl₂ (1 mM), as a reaction solution, a gold electrode as a working electrode and a platinum electrode as an opposing electrode, the response current was measured at an impression potential of +100 mV vs Ag/AgCl while adding glucose to a final concentration of 60 mM. The measurement was conducted at 25° C. With respect to each of sample solutions containing thrombin at 50 to 1,000 μg/mL ([…]), detection was similarly conduced by doubling the amounts of the DNA-immobilized carrier and ap-GDH to be employed.
A thrombin-concentration-dependent increase in current value was observed up to the level of 10 μg/mL. When BSA was used as a control in place of thrombin, the resultant current value was low, no BSA-concentration-dependent increase in current value was observed (FIG. 4(b)), and the detection limit was 100 ng/mL (2.7 nM) (FIG. 4(a)). […]

On to TCACGTTTATCCGTCCCTCCTAGTGGCGTGA (ssDNA) [CaAp-1 IgE-binding aptamer], for which the binding result in series [1] is reported as “no binding”.

B1: structure-switching thrombin aptamer with inserted hairpin (22-46 nt) (ssDNA)
DNA: CACTGGTAGGTTGGTGTGGTTGGACGACGAATTCATGATCACGTCCTTGGGGCCAGTG
Regarding B1, the binding result was “binds” in series [2] and “no binding” in series [3].
